In test [1] the target is SLC3A2, as used in the SPR measurement. The experiment in a line: SPR, concentration gradient binding curves.
Test [2] concerns the target transferrin receptor protein 1 (TFRC), as used in the SPR measurement. Kind of test: SPR, concentration gradient binding curves. (In general: SPR reads the build-up and loss of mass on a sensor chip optically.)

Usually Kd stands for a measure of binding affinity in units of concentration. Low readings indicate tighter binding, high ones weaker binding. On to “Cf48 small peptide (C4orf48), as used in the SPR measurement”, for which the Kd in test [1] worked out at 35.2 nM; in test [2], 571 nM.
